Laboratory results reported in patent CN116829596A (AUSTIA THERAPEUTICS INC, dated 2023).

B1: MAb4-YTE (antibody, human IgG1, kappa)
heavy: QVQLVQSGAEVKKPGSSVKVSCKASGYAFSSYWMNWVRQAPGQGLEWIGQIYPGDDDTNYNAKFQGRVTITVDKSTTTAYMELSSLRSEDTAVYFCAGSLMVTTGAPFDYWGQGTTVTVSSASTKGPSVFPLAPSSKSTSGGTAALGCLVKDYFPEPVTVSWNSGALTSGVHTFPAVLQSSGLYSLSSVVTVPSSSLGTQTYICNVNHKPSNTKVDKRVEPKSCDKTHTCPPCPAPELLGGPSVFLFPPKPKDTLYITREPEVTCVVVDVSHEDPEVKFNWYVDGVEVHNAKTKPREEQYNSTYRVVSVLTVLHQDWLNGKEYKCKVSNKALPAPIEKTISKAKGQPREPQVYTLPPSREEMTKNQVSLTCLVKGFYPSDIAVEWESNGQPENNYKTTPPVLDSDGSFFLYSKLTVDKSRWQQGNVFSCSVMHEALHNHYTQKSLSLSPG
light: DIQMTQSPSSLSASVGDRVTITCKASQDVGIAVAWYQQKPGKAPKFLIYYASHRGWGVPDRFSGSGSGTDFTLTISSLQPEDFATYFCQQYRSYPLTFGQGTKLEIKRTVAAPSVFIFPPSDEQLKSGTASVVCLLNNFYPREAKVQWKVDNALQSGNSQESVTEQDSKDSTYSLSSTLTLSKADYEKHKVYACEVTHQGLSSPVTKSFNRGEC
notes: Humanised full-length human IgG1 kappa; also called Mab-YTE
B2: MAb4-LS (antibody, human IgG1, kappa)
heavy: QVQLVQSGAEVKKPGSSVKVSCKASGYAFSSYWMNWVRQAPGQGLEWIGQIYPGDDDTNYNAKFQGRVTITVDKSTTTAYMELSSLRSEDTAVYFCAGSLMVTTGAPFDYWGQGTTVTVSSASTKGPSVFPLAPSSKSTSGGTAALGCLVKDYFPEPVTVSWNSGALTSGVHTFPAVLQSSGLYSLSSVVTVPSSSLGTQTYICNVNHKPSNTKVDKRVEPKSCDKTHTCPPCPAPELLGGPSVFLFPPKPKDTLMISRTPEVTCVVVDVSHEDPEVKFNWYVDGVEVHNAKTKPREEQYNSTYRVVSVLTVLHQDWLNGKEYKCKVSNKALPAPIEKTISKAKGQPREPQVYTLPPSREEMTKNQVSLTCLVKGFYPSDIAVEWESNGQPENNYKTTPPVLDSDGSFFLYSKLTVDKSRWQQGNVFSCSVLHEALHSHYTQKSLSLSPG
light: B1 light
notes: Humanised full-length human IgG1 kappa

Legend:
[1] = target: T1, 人类血浆激肽释放酶 (human plasma kallikrein) (human, UniProt P03952 20-390; P03952 391-638); assay: SPR, 37 C, pH 7.4
T1 construct: The active enzyme is a cleaved two-chain form; also called pkal; pKal

[2] = target: T1, 人类血浆激肽释放酶 (human plasma kallikrein); assay: SPR, 37 C, pH 6.0
[3] = target: T1, 人类血浆激肽释放酶 (human plasma kallikrein); assay: SPR, 37 C, pH 7.4 or pH 6.0
[4] = target: T1, 人类血浆激肽释放酶 (human plasma kallikrein); assay: SPR, 37 C

T1 sequence (P03952 20-390 S143N limits assumed, chain 1 of 2): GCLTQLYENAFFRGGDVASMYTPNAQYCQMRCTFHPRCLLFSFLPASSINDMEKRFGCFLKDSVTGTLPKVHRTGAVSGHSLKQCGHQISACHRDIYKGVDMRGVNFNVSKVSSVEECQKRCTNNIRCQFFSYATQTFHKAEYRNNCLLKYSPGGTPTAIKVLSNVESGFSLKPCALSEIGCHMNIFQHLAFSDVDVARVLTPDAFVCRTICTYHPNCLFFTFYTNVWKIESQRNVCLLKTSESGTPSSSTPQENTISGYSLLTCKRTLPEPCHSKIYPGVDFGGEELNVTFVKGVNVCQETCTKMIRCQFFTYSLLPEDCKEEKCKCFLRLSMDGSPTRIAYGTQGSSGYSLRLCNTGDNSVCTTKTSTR
T1 sequence (P03952 391-638 limits assumed, chain 2 of 2): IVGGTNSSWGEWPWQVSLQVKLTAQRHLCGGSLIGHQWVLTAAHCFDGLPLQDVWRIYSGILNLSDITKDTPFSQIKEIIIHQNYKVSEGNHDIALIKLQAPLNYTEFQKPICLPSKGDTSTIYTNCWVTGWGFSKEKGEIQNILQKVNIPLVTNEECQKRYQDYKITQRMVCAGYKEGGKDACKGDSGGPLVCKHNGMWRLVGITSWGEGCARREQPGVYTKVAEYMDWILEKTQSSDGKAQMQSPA

Binder	Kd [1]	Kd [2]	fold affinity for plasma kallikrein over prekallikrein [3]	fold stronger binding affinity than DX-2930 [4]
B1	1.1 nM	0.9 nM	> 1000 倍	> 5 倍
B2	2.2 nM	1.2 nM	> 1000 倍	> 5 倍
